Biological target: T1, human NKG2D (human, UniProt P26718 1-216)
T1 construct: whole, on cells; also called hNKG2D; expressed on CHO-K1/hNKG2D-11 cells
T1 sequence (looked up): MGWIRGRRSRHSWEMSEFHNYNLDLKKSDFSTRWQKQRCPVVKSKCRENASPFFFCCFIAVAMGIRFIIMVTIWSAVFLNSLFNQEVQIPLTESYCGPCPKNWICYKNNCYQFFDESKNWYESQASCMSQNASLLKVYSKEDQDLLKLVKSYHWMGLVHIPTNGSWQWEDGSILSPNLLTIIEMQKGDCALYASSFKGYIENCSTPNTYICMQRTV
Assay: flow cytometry on CHO-K1/hNKG2D-11 cells, detected with anti-human IgG (Fc)-FITC
Protocol: The human NKG2D-expressing CHO-K1 cell strain CHO-K1/hNKG2D-11 obtained in Example 7 was washed twice with PBS/1% FBS and suspended in 50 μl PBS/1% FBS containing 10 μl concentrate of the culture supernatant of the CSP2-Fc-expressing COS7 cells obtained in Example 6. The suspension was reacted at 0° C. for 60 minutes for binding them, then washed twice with 200 μl PBS/1% FBS, and suspended in 50 μl PBS/1% FBS containing 1 μl anti-human IgG (Fc)-FITC conjugate (Caltag). The suspension was reacted at 0° C. for 60 minutes for labeling, then washed twice with 200 μl PBS/1% FBS, and suspended again in 600 μl PBS/1% FBS. When the suspension was analyzed with a flow cytometer FACS Vantage (Becton Dickinson), cells with high intensity of FITC fluorescence were recognized, and the evident binding of CSP2-Fc protein to human NKG2D expressed on the surface of CHO-K1 cells was observed (FIG. 2A).

B1: CSP2-Fc protein (fusion protein of CSP2 protein with human IgG Fc region) (Fc fusion)
chain: HSLCFNFTIKSLSRPGQPWCEAQVFLNKNLFLQYNSDNNMVKPLGLLGKKVNATSTWGELTQTLGEVGRDLRMLLCDIKPQIKTSDPSTLQVEMFCQREAERCTGASWQFAINGEKSLLFDAMNMTWTVINHEASKIKETWKKDRGLEKYFRKLSKGDCDHWLREFLGHWEAMPEPTVSPVNASDIHWSSS
notes: Used as a 100-fold concentrate of the culture supernatant of transfected COS7 cells, not purified; The construct encodes CSP2 residues 1-221; not shown: human IgG Fc region, amplified by PCR from human spleen IgG Fc cDNA (Clontech); Subclass, limits and the residues encode
  binding result: binds
